The target in series [1] is Control peptide #112: [5-Fam]…[DABCYL]-Hex.
The target in series [2] is Control peptide #113: [4-Mu]…[DABCYL]-Hex.

B1: Proteinase K (protein)
chain: AAQTNAPWGLARISSTSPGTSTYYYDESAGQGSCVYVIDTGIEASHPEFEGRAQMVKTYYYSSRDGNGHGTHCAGTVGSRTYGVAKKTQLFGVKVLDDNGSGQYSTIIAGMDFVASDKNNRNCPKGVVASLSLGGGYSSSVNSAAARLQSSGVMVAVAAGNNNADARNYSPASEPSVCTVGASDRYDRRSSFSNYGSVLDIFGPGTSILSTWIGGSTRSISGTSMATPHVAGLAAYLMTLGKTTAASACRYIADTANKGDLSNIPFGTVNLLAYNNYQA
In general, KM refers to the concentration of substrate that gives half-maximal velocity. Turning to B1, the KM in series [1] turned out to be 3.37 µM; in series [2], 4.87 µM.

B2: Thermolysin (protein)
chain: ITGTSTVGVGRGVLGDQKNINTTYSTYYYLQDNTRGNGIFTYDAKYRTTLPGSLWADADNQFFASYDAPAVDAHYYAGVTYDYYKNVHNRLSYDGNNAAIRSSVHYSQGYNNAFWNGSQMVYGDGDGQTFIPLSGGIDVVAHELTHAVTDYTAGLIYQNESGAINEAISDIFGTLVEFYANKNPDWEIGEDVYTPGISGDSLRSMSDPAKYGDPDHYSKRYTGTQDNGGVHINSGIINKAAYLISQGGTHYGVSVVGIGRDKLGKIFYRALTQYLTPTSNFSQLRAAAVQSATDLYGSTSQEVASVKQAFDAVGVK
Consider B2, for which the KM came to 3.58 µM in series [1] and 6.45 µM in series [2].

Values taken from patent publication US20210255174.
